From PMC11214414 come the findings set out here.

Common to all, as to assay: EMSA
Series [1] addresses T1, HsASCC1 WT (Homo sapiens, UniProt Q8N9N2-2).
A further series concerns the target HsASCC1 GDDG mutant (Homo sapiens, UniProt Q8N9N2-2 1-357, K76D;R77D).
Series [2] deals with T1, HsASCC1 WT. This is another data set of the same source.

Like-named read-outs stand apart in the source and are kept apart here.

Regarding TTTTCGCGTTTT (ssDNA) [CGCG DNA], the binding result with HsASCC1 WT [1] is on record as “no binding”.
UUUUCGCGUUUU (ssRNA) [CGCG RNA]: the binding result in the series with HsASCC1 GDDG mutant is given as “no binding”; in the series with HsASCC1 WT [2], “binds”.
